Molecular target: T1, rhDLL4(重组人DLL4) (human, UniProt Q9NR61 27-524, limits assumed)
T1 construct: Immobilised on a CM5 chip for SPR and coated on 96-well plates for the MTT assay; also called 人DLL4抗原; DLL4抗原
Assay: SPR, Biacore X100, rhDLL4 immobilised on CM5 chip, antibody injected at 0.098-12.5 nM

T1 sequence (Q9NR61 27-524 limits assumed): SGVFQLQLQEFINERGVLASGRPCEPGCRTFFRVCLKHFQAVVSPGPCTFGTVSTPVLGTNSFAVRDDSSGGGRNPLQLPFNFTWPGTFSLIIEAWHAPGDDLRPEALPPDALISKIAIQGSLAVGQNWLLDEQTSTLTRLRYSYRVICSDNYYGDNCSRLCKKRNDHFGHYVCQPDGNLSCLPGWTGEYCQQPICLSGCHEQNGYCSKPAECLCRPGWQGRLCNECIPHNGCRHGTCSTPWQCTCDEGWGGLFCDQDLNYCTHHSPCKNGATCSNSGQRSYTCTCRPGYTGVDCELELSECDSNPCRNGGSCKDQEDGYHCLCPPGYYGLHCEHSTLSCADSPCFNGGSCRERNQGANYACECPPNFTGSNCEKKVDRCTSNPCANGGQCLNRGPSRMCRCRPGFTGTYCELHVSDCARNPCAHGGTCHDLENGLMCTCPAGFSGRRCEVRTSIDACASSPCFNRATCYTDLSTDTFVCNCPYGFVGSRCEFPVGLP

B1: 抗人DLL4人源化抗体H3L2 (antibody, human IgG1, lambda, V domains shown)
VH: QVQLVQSGAEVKKPGSSVKVSCKASGYTFSGYWMQWIKQAPGQGLEWIGAIYPGDGDTRYTQKFKGRATLTADKSTSTAYMELSSLRSEDTAVYYCAGGNFFFDYWGQGTLVTVSS
VL: EIVITQSPDFQSVTPKEKVTITCSVSSSISSSYLHWYQQKPDQSPKPWIYGTSNLASGVPSRFSGSGSGTDYTLTINSLEAEDAATYYCQQWSSSPLTFGQGTKLEIKV
notes: also called 抗DLL4人源化抗体
Kd: 2.26 pM

From patent CN105384819A (UNIV CHINA PHARMA, dated 2016)
